Results taken from article PMC13582642.
Several values for one entry are separate records, joined by “and”; a condition that tells them apart may be missing. Equal entries are not always repeated.

What was measured:
[1] = target: UV-stressed (aggregated) infliximab; test: FFF-MALS; asymmetric flow field flow fractionation (Eclipse AF4) with UV, MALS and dRI detectors; mobile phase 0.01 M monopotassium phosphate, 0.0027 M potassium chloride, 0.137 M sodium chloride
[2] = target: macrophage mannose receptor (CD206) (human (endogenous in moDCs)) (UniProt P22897)
[3] = target: UV-stressed (aggregated) infliximab; test: SEC; Agilent Bio SEC-3 column, 25 °C, 50 mM sodium phosphate, 150 mM KCl, 10% isopropanol, pH 6.8; samples at 1 mg/ml; fluorescence detection; percentages from peak areas
[4] = target: Fc gamma receptor IIa (human (endogenous in moDCs)) (UniProt P12318)
[5] = SEC; Agilent Bio SEC-3 column, 25 °C, 50 mM sodium phosphate, 150 mM KCl, 10% isopropanol, pH 6.8; samples at 1 mg/ml; fluorescence detection; percentages from peak areas

Chain of UniProt P22897 (P22897 19-1456): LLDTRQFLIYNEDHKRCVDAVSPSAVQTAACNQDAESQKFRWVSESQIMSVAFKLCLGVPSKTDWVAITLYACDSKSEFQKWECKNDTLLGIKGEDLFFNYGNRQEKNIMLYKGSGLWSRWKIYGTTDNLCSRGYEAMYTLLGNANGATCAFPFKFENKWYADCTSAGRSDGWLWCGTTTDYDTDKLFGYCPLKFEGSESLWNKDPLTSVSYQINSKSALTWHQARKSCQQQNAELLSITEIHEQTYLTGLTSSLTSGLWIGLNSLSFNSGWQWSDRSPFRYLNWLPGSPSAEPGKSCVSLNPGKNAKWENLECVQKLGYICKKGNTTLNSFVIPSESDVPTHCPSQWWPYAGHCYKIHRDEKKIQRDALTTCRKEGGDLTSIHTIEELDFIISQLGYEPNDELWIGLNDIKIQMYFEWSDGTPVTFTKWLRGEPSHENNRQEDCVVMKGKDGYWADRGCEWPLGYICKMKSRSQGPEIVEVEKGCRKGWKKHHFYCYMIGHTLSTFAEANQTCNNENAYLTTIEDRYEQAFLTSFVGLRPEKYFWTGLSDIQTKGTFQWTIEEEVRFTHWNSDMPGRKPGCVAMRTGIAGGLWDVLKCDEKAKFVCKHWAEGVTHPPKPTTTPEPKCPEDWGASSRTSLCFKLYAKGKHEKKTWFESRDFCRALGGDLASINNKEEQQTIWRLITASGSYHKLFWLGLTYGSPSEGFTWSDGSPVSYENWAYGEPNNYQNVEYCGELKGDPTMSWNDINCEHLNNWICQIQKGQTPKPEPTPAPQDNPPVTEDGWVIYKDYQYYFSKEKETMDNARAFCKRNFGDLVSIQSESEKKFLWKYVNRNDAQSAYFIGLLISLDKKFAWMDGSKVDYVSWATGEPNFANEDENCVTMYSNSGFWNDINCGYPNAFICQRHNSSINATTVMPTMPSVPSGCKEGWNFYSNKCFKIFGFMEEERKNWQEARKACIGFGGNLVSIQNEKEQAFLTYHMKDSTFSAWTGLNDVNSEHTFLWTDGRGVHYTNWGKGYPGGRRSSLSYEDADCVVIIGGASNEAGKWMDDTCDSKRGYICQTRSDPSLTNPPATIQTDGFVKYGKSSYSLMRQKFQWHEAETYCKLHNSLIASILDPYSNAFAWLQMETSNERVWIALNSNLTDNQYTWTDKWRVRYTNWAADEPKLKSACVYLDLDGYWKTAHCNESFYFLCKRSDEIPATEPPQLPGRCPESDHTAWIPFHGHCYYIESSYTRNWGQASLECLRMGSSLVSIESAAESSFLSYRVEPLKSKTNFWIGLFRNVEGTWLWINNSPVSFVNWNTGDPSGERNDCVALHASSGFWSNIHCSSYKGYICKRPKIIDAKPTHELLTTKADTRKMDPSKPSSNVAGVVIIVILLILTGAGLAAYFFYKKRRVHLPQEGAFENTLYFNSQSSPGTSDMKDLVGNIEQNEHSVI
Chain of UniProt P12318 (P12318 34-317): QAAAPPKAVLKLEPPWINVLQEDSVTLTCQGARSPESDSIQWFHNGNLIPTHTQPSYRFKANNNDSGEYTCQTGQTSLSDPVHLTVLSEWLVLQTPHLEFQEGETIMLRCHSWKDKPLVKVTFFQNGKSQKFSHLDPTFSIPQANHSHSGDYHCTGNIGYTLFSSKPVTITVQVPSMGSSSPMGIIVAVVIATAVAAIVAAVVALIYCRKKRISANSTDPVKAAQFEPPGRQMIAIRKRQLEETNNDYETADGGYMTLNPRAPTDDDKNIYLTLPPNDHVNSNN

| Substance | percent of dimers (FFF-MALS) [1] | percent of trimers and oligomers (FFF-MALS) [1] | inhibition of the internalization rate of AF-488 IFX UV by moDCs (flow cytometry, 37 °C minus 4 °C) after pre-treatment with anti-CD206 IgG (10 µg/ml) [2] | inhibition of the percentage of moDCs internalizing AF-488 IFX UV after pre-treatment with anti-CD206 IgG (10 µg/ml) [2] | stoichiometry N [3] | reduction of the uptake of AF-488 IFX UV by moDCs after pre-treatment with anti-FcγRIIa Ab (1 µg/ml) [4] | percent of dimers (ratio of SEC peak areas) [5] | percent of trimers (ratio of SEC peak areas) [5] |
| --- | --- | --- | --- | --- | --- | --- | --- | --- |
| UV-stressed (aggregated) infliximab (antibody) | 22.4% | 24.7% | 39% | 32% | 2 and 3 | 19% |  |  |
| UV-stressed (aggregated) infliximab |  |  |  |  |  |  | 19.27% ± 0.24% dimers | 26.19% ± 3.95 trimers |
